Assay: soluble on expression in E. coli; label from the status in PepcDB or PDB records

Question: With “MNSDLALLRLLQLASPGLPVGGFTYSQGLEWAVEAGWVRGVDSFAGWQREQVHDTLACLDWPVLARLYHACQAKDAEAFGHWSRFLLANRETAELRLEEQQRGAALARLLDGWQLGQAPAWRASLELTQLGGMAWLAAHWAIPLRQLALGHGFAWLEGAVMAGVKLVPFGQQAAQTLLRDLGADLPAALDQALALGDDQLGGGLPLLAIASSRHETQYTRLFRSLEHHHHHH” as the sequence, how does the “soluble on expression in E. coli” value read?
Answer: soluble

Question: Which “soluble on expression in E. coli” value does the source give for “MNCYNKFAHIYDKLIRADVDYKKWSDFIIEKCVENNLVFDDYLDLACGTGNLTENLCPKFKNTWAVDLSQEMLSEAENKFRSQGLKPRLACQDISNLNINRKFDLITCCLDSTNYIIDSDDLKKYFKAVSNHLKEGGVFIFDINSYYKLSQVLGNNDFNYDDDEVFYYWENQFEDDLVSMYISFFVRDGEFYKRFDEEHEERAYKEEDIEKYLKHGQLNILDKVDCYSNKKVEKFTERITYLVKLGGKSNGR” here?
Answer: soluble

Question: For “MGSDKIHHHHHHMNEKELAGWFPQAKLSQEADAQSLALGDGRYLNLADADLTERERYLLSLLSHPQEQKPSSPWQSYLHGQSSLPQAVEAIQFIHVHLWSQKDAQLDAWQTMMTDLLPSQLAQVQLSSQDYLFIIEQSRWTDYQTILADTLSALEFDFGLRLTFLVGQVWSRQLADRWSQLYQAEAALFAHWRAHYHQSTVLSFSQLFLWGQGRAGLEFGMIKASMLQLIDQQDMQDIILALWTEGAVVTKTAQILYIHRNTLQYRLDKWQDLTGLQLKDLTDLSFCYQVLLDRLF”, which “soluble on expression in E. coli” value is on record?
Answer: not soluble

Question: With “MGSDKIHHHHHHTEYPLPAAQSRLIGENQYYTVPEGKHTLEDIAAKYQLGLSNLLEANPGVDPFLPKPGSQLLIPLQLILPNAPREGIVINVAEMRLYYYPKGKKTVEVLPIGIGQIGKDTPENWVTSVQRKRANPTWTPTPRIRKEYAAKGEILPAVWPAGPDNPMGLYALYIGNLYAIHGTNASFGIGLRVSQGCVRLRHEDIEHLFKNVPVGTRVQFVNQPIKATEEPDGKRYLAVHQPLSRTVAEFESNEPVAISLPRDIAKFIAKADTNSSVIKKLLDERTGVPMRINQ” as the sequence, how does the “soluble on expression in E. coli” value read?
Answer: not soluble

Question: For “MNADKFVETTISDFMRLNSSRDFEYFVSIAKQLYSRGCRDYYTEAFLTHLKTIFPITEENAEKWLKYGEMLGTVGEKDFRTDIFEQMMKDFVDSNKLSQIAAKFHGFVESVDDWNLLAECLFSRVRALEHKINLTASAPMATDPSESSC”, which “soluble on expression in E. coli” value is on record?
Answer: not soluble

Question: For “MPCFFFILDTSGSMSTRAHPQFSFFDLAKNFIENFIKQRTKGDNRMMVGRETDKYFLMTTQARYPKNVKVACEKLGAVVIEEIKKLHLPYGSCQLHHAILEAFKVLHVSRVQTGIDGVGIGRLISNTEPVTMILLTDGSGVAGIPIDFRLFFDPPFLGSEMTRDAFRWDQKFYTVVFRIPSTPYRPTISQLTAIDIDMPVIERLCARTGGRSFSIVSPRQIQTTIDYLLAMGNQYKIGVRFECLPAIPAPITSDEVNLVKMKFKKVIDKRPVTNIISRLNPQARPVTCHWPIPESFFPMRTMDQLPQRTSHPVILCAPIALPLHIRPELPVDKLELEPGGISDIIMEILQGRKDMTVWTYMEGSSNGPTAPFGCLRMNTLGTGITLILMPFNFPMLYSLVEEIVKEPFLNKSQVWRSKLESYFHTVPFYYNTQIRVCLDKFDVKVDYSSSMSMFYPGQLLSNLNRFKAKAREELDQMAIASKLNDSKTLKIVNPSIRIERITSRSTIIGLGNSEVDIEDDSLEGYESTPIYAGDFKIPLYPPSITDAQLDSAYRTPYSSPIEDLTSKLNRIQANIELMFDPNKITLLDMAKLGTKARFNTLGLCFFHPIFLANSTSRKFYIQKFETLQVMDSAVVDNNSPSTSGQPKRFGGEGRQGGGPPKRRRGPLGIDAYDQYRIRRSMRGSSAGSDISDISSSLGTFDQDSDMTTPGTSGMNTPISEFDDLQLQEMDSDDQLMKNLDEVQALRKKEEAQVQPKIKKPPPVPPASILSSQEILTRKIRIGSIIRKPANHCAFEEIMTLVAGITQEACSQLIKYALRESQRFKLKQLTERLENRLKTV”, which “soluble on expression in E. coli” value is on record?
Answer: not soluble

Question: For “MGHHHHHHSHMVPSREALLGPGTTAIRCPKKLQNQNYKGHGLSKGKEREQRASIRFKTTLMNTLMDVLRHRPGWVEVKDEGEWDFYWCDVSWLRENFDHTYMDEHVRISHFRNHYELTRKNYMVKNLKRFRKQLEREAGKLEAAKCDFFPKTFEMPCEYHLFVEEFRKNPGITWIMKPVARSQGKGIFLFRRLKDIVDWRKDTRSSDDQKDDIPVENYVAQRYIENPYLIGGRKFDLRVYVLVMSVFAECLLWSGHRRQDVHLTNVAVQKTSPDYHPKKGCKWTLQRFRQYLASKHGPEAVETLFRDIDNIFVKSLQSVQKVIISDKHCFELYGYDILIDQDLKPWLLEVNASPSLTASSQEDYELKTCLLEDTLHVVDMEARLTGREKRVGGFDLMWNDGPVSREEGAPDLSGMGNFVTNTHLGCVNDRKKQLRQLFCS”, which “soluble on expression in E. coli” value is on record?
Answer: soluble

Question: With “MGHHHHHHSHMAAVDIRDNLLGISWVDSSWIPILNSGSVLDYFSERSNPFYDRTCNNEVVKMQRLTLEHLNQMVGIEYILLHAQEPILFIIRKQQRQSPAQVIPLADYYIIAGVIYQAPDLGSVINSRVLTAVHGIQSAFDEAMSYCRYHPSKGYWWHFKDHEEQDKVRPKAKRKEEPSSIFQRQRVDALLLDLRQKFPPKFVQLKPGEKPVPVDQTKKEAEPIPETVKPEEKETTKNVQQTVSAKGPPEKRMRLQ” as the sequence, how does the “soluble on expression in E. coli” value read?
Answer: soluble

Question: With “MPQINTVPGPHLRRQVWLRTKSGQRLAYAVSWWDASHVDEYLQNRSLPIWDSLSRLHTELYRDIQAIYCGHNRTLAKAFGQEGPFWGRHYLFWHDRKPLTLIYEIFSPYLSRYLGELPRPKFELEHHHHHH” as the sequence, how does the “soluble on expression in E. coli” value read?
Answer: not soluble

Question: Which “soluble on expression in E. coli” value does the source give for “MNLTPGGNAPVPAQELRVRITSGGQVDASAFRLYADGKVQGDADMVFYGQPRNDDGTVSLVSEGQYSTFTVALNRLKPDVQKIAFTVTCDGGQTVSGLRNLSIDVEQGATGLVSGSVELSGRQEAALILGEFYRRNNDWKFRFVAQGFNGGLKPLAEHFGVNIADEPAPAAPTPPVVTPPPVETKISLSKVSLTKEKPAISLTKRDNFGEIRINLNWHRGSSKSGFAGMFGSKGIDLDLGAFVELQDGYKSVIQALGNAFGDYRDEPYVQLKGDDRTGDVSDGEWLHINGREWKHIREVLIYAFIYEGVPSWDKTDGVVTIHVPDQPPIETRLTEGENRRTLCAIARLVNENGAIKVERINQYFKGQDEMDRAFGWGFRWSAGSK” here?
Answer: not soluble

Question: With “MGSDKIHHHHHHVNPLLDSLQPYPFEKLRALFKDVTPNAGLAHISFGIGEPKHPTPALIRDAVVASLGGLSAYPATSGSPALRESIAKWVTQRYNLPPVDPATQVLPVSGSREALFSLAQTVLDPQKNAGGEPAIVLCPNPFYQIYEGAAILAGAQPYFVNSDPARNFACDYSAVPAEIWARTQLLYVCSPGNPTGAVLTLDDWRELFALSDRYGFVIASDECYSEIYFDEAKPPLGGLEAAHKLGRGFERLVMLSSLSKRSNVPGMRSGFVAGDAAILKDFLLYRTYHGAALSTVFQNASIAAWNDEAHVRENRAKYLQKFSTVTPMLAEVLDVRLPDAAFYLWADVSRTGLTDTVFAQRLYADYNVTVLPGSFLARTAHGVNPGRNFVRMALVADVDECTQGAQRIVDFCRALAG” as the sequence, how does the “soluble on expression in E. coli” value read?
Answer: not soluble

Question: With “MGSDKIHHHHHHMTSKIDGLSVSSGLHRRYWNGMVADLWSVDCQSDAGGQYVSSDPRLFILLDAAGEDGADLSMAEGGGKRISGAMARAAHFIPAGLELSTAITGVKSLRHLDLHFDADILRHRLGEDAGLAALHQPRYLLDDPRLLALAELIAADVANPHPLHDLYGDGLVSALLIDVLNIRPTPTHQLPNRKRSKLAAWQLRRVCDFIEAHCLRTIRLEELAGLAGLSPTYFSHAFKASTGLSPHQWQMKARIETVKQRLRDPAVPLTVIAAETGFADAAHFARSFRRAVGLSPSEWRRVRLN” as the sequence, how does the “soluble on expression in E. coli” value read?
Answer: not soluble

Question: Which “soluble on expression in E. coli” value does the source give for “MSLAKVLYITAHPFNELVSNSMAAGKAFIETYQQQHPDDEVKHIDLFETYIPVIDKDVLTGWGKMSNGETLTDDEQMKVSRLSDILEEFLSADKYVFVTPMWNLSFPPVVKAYIDAISIAGKTFKYSAEGPQGLLTDKKVLHIQSRGGYYTEGPAADFEMGDRYLRTIMTFLGVPSYETIIIEGHNAEPHKTEEIKATSINNAEKLATTFEGGSHHHHHH” here?
Answer: soluble

Question: Which “soluble on expression in E. coli” value does the source give for “AIAGTAFPTMAEVVAEVAEMPTQMSPGAVEMSTPMSAEMMEMSTEVTEMTPGEALASSLFFQHHQFMCSECGSLYNTLEEVLSHQEQHMLAVSEEEALTTQNVGLEPELVPGAEGPFQCGECSQLILSPGELLAHQDAHLRESANQIQYQCWDCQELFPSPELWVAHRKAQHLSATVAEPPVPPPLPPPTPLPPPSPPSEVKMEPYECPECSTLCATPEEFLEHQGTHFDSLEKEERNGLEEEEEDDEEDEEDDEEMEDEEAMAEVGDDAVGGDESTAGWAQGCGDCPQHQPSAGARRQHRRTAHSPASATHPFHCSQCQRSFSSANRLQAHGRAHVGGTHECTTCSKVFKKAASLEQHLRLHRGEARYLCVDCGRGFGTELTLVAHRRAHTANPLHRCRCGKTFSNMTKFLYHRRTHAGKSGAPPTGATAPPAPAEPTPPPPPPAPPAQLPCPQCSKSFASASRLSRHRRAVHGPPERRHRCGVCGKGFKKLIHVRNHLRTHTGERPFQCHSCGKTFASLANLSRHQLTHTGARPYQCLDCGKRFTQSSNLQQHRRLHLRPVAFARAPRLPITGLYNKSPYYCGTCGRWFRAMAGLRLHQRVHARARTLTLQPPRSPSPAPPPPPEPQQTIMCTELGETIAIIETSQPLALEDTLQLCQAALGASEAGGLLQLDTAFV” here?
Answer: soluble

Question: Which “soluble on expression in E. coli” value does the source give for “MARQLRAEQTRATIIGAAADLFDRRGYESTTLSEIVAHAGVTKGALYFHFAAKEDLAHAILEIQSRTSRRLAKDLDGRGYSSLEALMRLTFGMARLCVQGPVLRAGLRLATAGVPVRPPLPHPFTEWREIATSRLLDAVRQSDVHQDIDVDSVAHTLVCSVVGTRVVGGTLEPAGREPRRLAEMWYILIRGMVPVTRRARYVTLAARLEQETGTA” here?
Answer: soluble

Question: With “MYTITDIAPTDAEFIALIAALDAWQETLYPAESNHLLDLSQLPPQTVIALAIRSPQGEAVGCGAIVLSEEGFGEMKRVYIDPQHRGQQLGEKLLAALEAKARQRDCHTLRLETGIHQHAAIALYTRNGYQTRCAFAPYQPDPLSVFMEKP” as the sequence, how does the “soluble on expression in E. coli” value read?
Answer: not soluble

Question: For “TRAMEEALFQHFMHQKLGIAYAIHKPFPFFEGLLDNSIITKRMYMESLEACRNLIPVSRVVHNILTQLERTFNLSLLVTLFSQINLREYPNLVTIYRSFKRVGASY”, which “soluble on expression in E. coli” value is on record?
Answer: not soluble

Question: For “MGSDKIHHHHHHMRVFNSSPPSEAQTRTRILQAAQRLFASQGFDGTTTRDLAQAAGVAEGTLFRHFPNKKAILVEVATSGWVEILTDLLTELSEMGSYKAVAQVMRRRMWNFQKNADLMRVCFMEVQFHPDLRDRIQLEVITKMTDVGEAFFQTAMDKGIYRKMDAKLVAKVFLGMFAIAGFSNNTLIEPDASPQQMQEMAEGLADIFLNGVLAKD”, which “soluble on expression in E. coli” value is on record?
Answer: not soluble

Question: For “MQSKLITELTDLETAFHIRKEVFVKEQGVPLTDEFDTFDEIGEQCKHILVYYHELPVGTGRIRFVDGVGKLERICILKDYRTYGLGKVIIQTLEEIARNEQATKVKLHGQTQAEGFYKKLGYETSSDIFMEDGIPHILMTKMLS”, which “soluble on expression in E. coli” value is on record?
Answer: not soluble

Question: For “MGSDKIHHHHHHMPTLTINQRLDALLPKLQDARLLSNRGIGNEIGFYIFDYDAEYEPLVQRYVDRLKLQLTSSPSGFASPSLSEQQDRAGSPIQLILLEIDLYKTILDILSERGVLKKAFELEATKGNAALAKTVAPLVRPDQVIAYIQKKLRGDEQLVIMTGVGASWPLLRSHSILNNLHPVLDKIPLVMFFPGSYDGHELRLFDTFKDDNYYRAFPLIPHQQHHL”, which “soluble on expression in E. coli” value is on record?
Answer: not soluble
